# B1: mRNA-splicing (parent)
# chain: AGUUGCUGCUGGGAGCUCCAGCACAGUGAAAUGGACAGAAGGGCAGAGCAA
# Variants of: B1
# Assay: exon inclusion enrichment index; higher = more inclusion; WT1 exon 5 minigene, HEK293
row,Variant,exon inclusion enrichment index
1,G38U,0.029
2,G5A C6G U7G C9A G11C G12U,0.00113
3,C6A U7C C9A U10C G28A A29G,1.98
4,C6A U7C C9A U10C A39U A40G,1.39
5,C6A U7C C9A U10C A45C,3.19
6,G5A C6U U7A G8U C9A G15U,0.0601
7,C6A U7C C9A U10C A31U U32C,3.74
8,G5C U7C G8A U10C,0.327
9,G5U G8U C9U A31U,0.15
10,G5A C6U U7A G8U C9A G43C,0.15
11,C6A U7A C9A U10A U32C G33C,1.09
12,C6A U7C C9A U10C A30C,3.29
13,G5U G8U C9U A35U C36U,0.000565
14,U3C U4A G5A U7C G8A U10C,2.12
15,A23U C24G,0.96
16,G5C C6U G8C C9U U10C A37G G38U,0.627
17,G2U U3G C6A U7A C9A U10A,2.07
18,C6A U7A C9A U10A A20G G21C,0.891
19,C6A U7C C9A U10G G11A,2.06
20,G5A C6U U7A G8U C9A G11C,0.191
21,G5U G8U C9U A37G G38U,0.0298

row,Variant,exon inclusion enrichment index
1,G5A U7C G8A U10C G28A A29G,1.02
2,G33U G34A,0.00421
3,G5A C6U U7A G8U C9A A29U A30U,0.00971
4,G5A C6G U7G C9A G21U C22G,0.000869
5,G5A C6U U7A G8U C9A A40C,0.241
6,G5C C6U G8C C9U U10C C16G,1.02
7,U3A G5C C6A U7C G8A U10A,0.475
8,G5A C6G U7G C9A C19G A20U,0.00167
9,G5U G8U C9U A23C C24U,0.0326
10,G5C C6U G8A C9G U10C,0.184
11,G5A C6U U7A G8U C9A G42A,0.446
12,G5C C6U G8C C9U U10C G11C,2.41
13,U4C G8U C9U,2.06
14,C6A U7A C9A U10A C22A A23U,0.354
15,G5A C6A U7A G8A U10C,0.831
16,G5U G8U C9U A40U,0.0931
17,G5C C6A U7C C9U U10A,0.0237
18,C6A U7A C9A U10A A40C G41U,0.431
19,G5A C6G U7G C9A G12U G13C,0.00117
20,C6A U7C C9A U10C U27A G28A,2.98
21,G5A C6G U7G C9A C36G A37U,0.00107

row,Variant,exon inclusion enrichment index
1,G5U G8U C9U C19G A20C,0.13
2,G5C C6A U7C G8A U10A A35G,0.0247
3,C6A U7C C9A U10C A31G U32A,5.2
4,G5C C6A U7C G8A U10A C16U U17C,0.0203
5,G5C C6U G8C C9U U10C G13C A14U,1.35
6,C6A U7A C9A U10A C36A A37U,0.229
7,G5U G8U C9U G28C A29U,0.0407
8,G5U G8U C9U G28C A29C,0.115
9,G5C C6G U7C U10C G33A G34C,0.988
10,G5U G8U C9U A37U G38C,0.0749
11,G5A U7C G8A U10C A31G,2.95
12,G5C C6A U7C C9G U10A,1.72
13,G5C C6G U7C U10C G38U A39U,0.22
14,A47C,0.293
15,G5C C6G U7C U10C G13A A14U,2.93
16,G5U G8U C9U C36G A37U,0.0469
17,G5A C6G U7C G8A C9A,0.0448
18,U7C G8C,1.02
19,G5U G8U C9U G12A G13C,0.0118
20,G5C C6U G8C C9U U10C C44A A45C,3.61
21,G5C C6U G8C C9U U10C A45G G46A,3.98

row,Variant,exon inclusion enrichment index
1,G5C C6U G8C C9U U10C G15C,2.54
2,G5C C6U G8C C9U U10C G15U,2.23
3,G5C C6U G8C C9U U10C C24U A25C,3.44
4,G5U G8U C9U A14G,0.0707
5,G2C U3A G5C C6U G8C C9U U10C,1.71
6,A29U A30G,0.237
7,C6A U7A C9A U10A G28U A29C,0.539
8,G5A C6G U7G C9A C16U U17A,0.00236
9,G5C C6G U7C U10C G43C C44A,3.83
10,G5C C6U G8C C9U U10C C44A,3.29
11,G5C C6U G8C C9U U10C A30U A31G,2.12
12,C24G A25U,0.0194
13,A30G A31C,0.126
14,C6A U7A C9A U10A A29U,0.131
15,C6A U7A C9A U10A C22G A23U,0.0793
16,G5C C6A U7C G8A U10A A25U G26C,0.181
17,G5C C6A U7C G8A U10A A30G A31C,0.00678
18,U3G U4A G5C C6G U7C U10C,2.08
19,G5C C6G U7C U10C C24G A25C,4.6
20,G5U G8U C9U A45G G46A,0.672
21,G5C C6U G8C C9U U10C G26C U27A,2.14

# Source: the RNAGym collection of RNA variant scans (doi:10.1101/gr.219683.116)
